The values below come from the Immune Epitope Database (IEDB).

The target of experiment [1] is HLA-B*53:01. In words: IEDB peptide-MHC binding, purified MHC/competitive/radioactivity; filed as Kd, often an IC50 or EC50 that approximates it; ≥ and ≤ were set here for values at or beyond the usual limits of such assays.
For experiment [2], the target named is HLA-B*54:01. The experiment is described as above.
Experiment [3] concerns the target HLA-B*35:01. The experiment is described as above.
Experiment [4] addresses HLA-B*51:01. The description is as above.
Experiment [5] has as its target HLA-B*07:02. Described as above.
In experiment [6] the target is HLA-A*11:01. In words: IEDB peptide-MHC binding, purified MHC/direct/fluorescence; filed as Kd, often an IC50 or EC50 that approximates it; ≥ and ≤ were set here for values at or beyond the usual limits of such assays.
The target in experiment [7] is HLA-A*68:01. In words: IEDB peptide-MHC binding, purified MHC/competitive/radioactivity; filed as Kd, often an IC50 or EC50 that approximates it; ≥ and ≤ were set here for values at or beyond the usual limits of such assays.
Experiment [8] addresses HLA-A*31:01. The experiment is described as follows: IEDB peptide-MHC binding, purified MHC/competitive/fluorescence; filed as Kd, often an IC50 or EC50 that approximates it; ≥ and ≤ were set here for values at or beyond the usual limits of such assays.
Experiment [9] deals with HLA-B*15:01. The experiment is described as follows: IEDB peptide-MHC binding, purified MHC/competitive/radioactivity; filed as Kd, often an IC50 or EC50 that approximates it; ≥ and ≤ were set here for values at or beyond the usual limits of such assays. The following applies: source organism: Vaccinia virus WR.
Experiment [10] deals with HLA-A*30:01. The description is as above. The settings on record: source organism: Vaccinia virus WR.
In experiment [11] the target is HLA-B*15:03. Described as above. The following applies: source organism: Vaccinia virus WR.
In experiment [12] the target is HLA-A*32:01. The experiment is described as above. The settings on record: source organism: Vaccinia virus WR.
The target in experiment [13] is HLA-B*08:01. The experiment is described as above. The settings on record: source organism: Vaccinia virus WR.
Experiment [14] concerns the target HLA-A*31:01. The description is as above. The following applies: source organism: Vaccinia virus Copenhagen.
Experiment [15] deals with HLA-A*02:06. The description is as above. The settings on record: source organism: Vaccinia virus Copenhagen.
The target of experiment [16] is HLA-A*02:03. The description is as above. The settings on record: source organism: Vaccinia virus Copenhagen.
Experiment [17] has as its target HLA-A*03:01. Described as above. The following applies: source organism: Vaccinia virus Copenhagen.
In experiment [18] the target is HLA-A*11:01. The experiment is described as above. The following applies: source organism: Vaccinia virus Copenhagen.
Experiment [19] deals with HLA-A*02:02. The description is as above. The following applies: source organism: Vaccinia virus Copenhagen.
Experiment [20] has as its target HLA-A*33:01. The description is as above. The following applies: source organism: Vaccinia virus Copenhagen.
In experiment [21] the target is HLA-A*02:01. In words: IEDB peptide-MHC binding, purified MHC/competitive/fluorescence; filed as Kd, often an IC50 or EC50 that approximates it; ≥ and ≤ were set here for values at or beyond the usual limits of such assays. The settings on record: source organism: Vaccinia virus L-IPV.
Experiment [22] addresses HLA-B*48:01. In words: IEDB peptide-MHC binding, purified MHC/direct/fluorescence; filed as Kd, often an IC50 or EC50 that approximates it; ≥ and ≤ were set here for values at or beyond the usual limits of such assays. The following applies: source organism: Yellow fever virus.
Experiment [23] addresses HLA-A*03:01. The description is as above. The following applies: source organism: Amur virus.
The target in experiment [24] is HLA-A*02:01. In words: IEDB peptide-MHC binding, purified MHC/competitive/radioactivity; filed as Kd, often an IC50 or EC50 that approximates it; ≥ and ≤ were set here for values at or beyond the usual limits of such assays. The settings on record: source organism: Lassa virus Josiah.
[25] abbreviates: source organism: Vaccinia virus WR.
Where [26] appears, read: source organism: Mammarenavirus juninense.
Where [27] appears, read: source organism: Vaccinia virus Copenhagen.
The mark [28] stands for this setting: source organism: SARS coronavirus Tor2.
The mark [29] stands for this setting: source organism: Yellow fever virus 1899/81.

Usually Kd stands for the equilibrium constant for the complex coming apart. With LPEETNIGCA, the Kd is 2080 nM in [1] (setting [25]); 243 nM in experiment [2] (setting [25]); 8680 nM in experiment [3] (setting [25]); not below 69600 nM in [4] (setting [25]); not below 20700 nM in experiment [5] (setting [25]).

Take MPTDMLKLF: the Kd stood at 0.141 nM in experiment [1] (setting [25]); 28.6 nM in [2] (setting [25]); 0.163 nM in [3] (setting [25]); 99.2 nM in experiment [4] (setting [25]); 17.8 nM in experiment [5] (setting [25]).

Consider AVSMANIFR, for which the Kd came to 8.9 nM in experiment [6] (source organism: Dengue virus 1 Singapore/S275/1990), 55.4 nM in experiment [7] (source organism: Dengue virus 2 Jamaica/1409/1983) and 1.37 nM in experiment [8] (source organism: dengue virus type 1).

With TPLISFFGLF, the Kd in [1] (setting [25]) is 31.1 nM; in experiment [2] (setting [25]) it was 3960 nM; in experiment [3] (setting [25]), 416 nM; in experiment [4] (setting [25]), 4970 nM; in [5] (setting [25]), 1140 nM.

Consider TPDNFSSLI, for which the Kd in [1] (setting [26]) was 372 nM; in experiment [2] (setting [26]), not below 78100 nM; in experiment [3] (setting [26]), 15300 nM; in [4] (setting [26]), 1710 nM; in experiment [5] (setting [26]), 11300 nM.

Regarding ELRDYFEQI, the Kd in experiment [9] is 2190 nM; in experiment [10], not below 38000 nM; in experiment [11], 80.2 nM; in experiment [12] it was not below 77800 nM; in [13], 12.5 nM.

Take RSKDTHVFA: the Kd in experiment [10] turned out to be 0.0187 nM; in experiment [11], 182 nM.

Take NLFDIPLLTV: the dissociation constant Kd in experiment [1] (setting [27]) is not below 69900 nM; in experiment [14], not below 22300 nM; in [2] (setting [27]) it was 18800 nM; in [15] it was 1.55 nM; in experiment [16], 0.253 nM; in experiment [3] (setting [27]) it was not below 69900 nM. Moreover, the Kd in experiment [17] was not below 48000 nM; in experiment [18], not below 69800 nM; in [4] (setting [27]), not below 69600 nM; in experiment [7] (setting [27]) it was not below 21900 nM; in [5] (setting [27]), 17100 nM; in experiment [19], 0.0997 nM. Also, the dissociation constant Kd in experiment [20] was 11800 nM; in experiment [21], not above 0.1 nM.

Consider MKITRPRHF, for which the Kd in experiment [11] is 1.04 nM.

In experiment [22], KRVVASLMR displayed an equilibrium dissociation constant (Kd) not below 20000 nM.

With NMGVAMNLF, the dissociation constant Kd in experiment [11] stood at 998 nM.

On to KPIMSMGDII, for which the equilibrium dissociation constant (Kd) in [1] (setting [25]) was 90.7 nM; in [2] (setting [25]), 1980 nM; in [3] (setting [25]), 622 nM; in [4] (setting [25]), 425 nM; in [5] (setting [25]) it was 6.49 nM.

As for LSISCPNSL, the Kd in experiment [11] turned out to be 256 nM.

For the sequence KPTTFMLKY, the Kd in [1] (setting [28]) was determined as 24.7 nM; in experiment [2] (setting [28]) it was 5220 nM; in [3] (setting [28]) it was 41.3 nM; in [4] (setting [28]), 13000 nM; in experiment [5] (setting [28]), 11400 nM.

For GTHPFSRIR, the Kd in experiment [6] (setting [29]) was found to be 326 nM; in experiment [8] (setting [29]) it was 6 nM.

Turning to VLFMVAWGK, the values for the Kd in experiment [23], in [6] (source organism: Amur virus) and in [8] (source organism: Hantaan virus 76-118) were 2260 nM, 76 nM and 161 nM, respectively.

In the case of VLKGLYNFA, in [24], the equilibrium dissociation constant (Kd) came out at 6250 nM.
